Measurements reported in US7820179B2, “Pegylated PTH as PTH receptor modulators and uses thereof” (Eli Lilly and Company, priority 2006, dated 2010).
No end group written: not given here.

Tests used:
Type in all cases: in vivo, rat
[1] = tested on: young adult osteopenic ovariectomized rats; experiment: Young adult osteopenic ovariectomized rats: femur BMD (QCT) and serum calcium; details: young adult Ovx rats
Method: Female Sprague-Dawley rats about 3 months of age are ovariectomized, except for sham controls, and maintained on a 12 hour light/dark cycle at 22° C. with ad lib access to food (TD 89222 with 0.5% Ca and 0.4% P, Teklad, Madison, Wis.) and water. Ovariectomized (Ovx) rats are allowed to lose bone for 25 days, and then weighed and randomized into treatment groups. Treatment is by subcutaneous injection of a compound of the invention at various doses (as indicated in Table 2 below) for 1 month in a vehicle of 20 mM NaH2PO4 in 0.9% NaCl, 3 mg/ml mannitol, pH 5. The rats are injected with the compounds every third or fourth day to approximate once weekly administration to a human. Sham and Ovx controls are treated with the vehicle only (“sham vehicle control” and “ovx vehicle control”). Sera are collected by cardiac puncture approximately 24 hours after final injection under isoflurane anesthesia at necropsy (approximately 24 hours after the final injection), and analyzed using a clinical chemistry analyzer (Hitachi 917, Tokyo, Japan).
At necropsy, left femora are removed, cleaned of soft-tissue and stored in 50% ethanol/saline at 4° C. At room temperature, femora in 50% EtOH/saline are wrapped in Parafilm and centered with respect to the gantry for quantitative computed tomography (QCT) (Research M, Stratec). […]

[2] = tested on: aged osteopenic ovariectomized rats; experiment: Aged osteopenic ovariectomized rats: vertebral BMD/BMC, bone biomechanical strength, serum calcium
Method: Hypercalcemia is defined herein as the upper 97.5 percentile serum calcium value of normal ovariectomized vehicle controls for the animal type used, using clinical chemistry data and sera collected from cardiac puncture (International Federation of Clinical Chemistry, H E Solberg in Tietz Fundamentals of Clinical Chemistry, 5th edition, Burtis C A and Ashwood E R, editors, 2001, pp 251-261). The value reflecting the 97.5 percentile is 11.2 mg of calcium per dL of serum from ovx vehicle control. The “Hypercalcemic Dose”, i.e., the dose at which hypercalcemia is observed 24 hours after injection of the test compound using clinical chemistry data and sera collected from cardiac puncture, is determined by interpolation, using regression analysis to fit the calcemic dose response observed 24 hours after administering the compound to ovariectomized rats.
Female Sprague-Dawley rats about 6 months of age are ovariectomized, except for sham controls, and maintained on a 12 hour light/dark cycle at 22° C. with ad lib access to food (TD 89222 with 0.5% Ca and 0.4% P, Teklad, Madison, Wis.) and water. Ovariectomized (Ovx) rats are allowed to lose bone for one month before treatment with compounds of the invention for two additional months. The compound to be tested is subcutaneously administered at various doses (as indicated in Table 3 below) in a vehicle of 20 mM NaH2PO4 in 0.9% NaCl, 3 mg/ml mannitol, pH 5, every 6 or 7 days for two months. Sham and Ovx controls are treated with the vehicle only (“sham vehicle control” and “ovx vehicle control”). Sera are then collected by cardiac puncture under isoflurane anesthesia at necropsy, and analyzed using a clinical chemistry analyzer. Lumbar vertebra L4-6 and left femora are removed, cleaned of soft-tissue and stored in 50% ethanol/saline at 4° C. At room temperature, L-5 in 50% EtOH/saline are wrapped in Parafilm and centered with respect to the QCT gantry (Research M, Stratec). A coronal scout scan of the L-5 vertebra is generated first in 2D before 3D analysis. QCT parameters are measured including BMD (mg/cc), BMC (mg), and cross-sectional area (mm^2). Lumbar vertebra L-5, femoral midshaft, and proximal femur are then prepared for biomechanical testing. Strength (N) is evaluated by loading the specimens to failure as described previously (Sato, et al., Endocrinology, […]:4330-4337, 1997).
Pegylated compounds of the invention are evaluated in this assay relative to a positive control of 3-5 μg/kg/d PTH(1-38). PTH(1-34) and PTH(1-38) are found to be indistinguishable in terms of skeletal efficacy or calcemic effects in osteopenic ovariectomized rats. It has been previously shown that rats administered 5 μg/kg/d (1 nmol/kg/d) PTH(1-34) have a systemic exposure that is about 3 times that of PTH(1-34) (i.e., FORTEO™) in humans (Tashjian and Chabner, J. Bone Miner Res, 17:1151-1161, 2002; Tashjian and Gagel, J. Bone Miner Res, 21:354-365, 2006). […] This is confirmed for PTH(1-38) in this model with a dosing of 3-5 μg/kg/d.

[3] = tested on: aged osteopenic ovariectomized rats; experiment: Direct comparison of 2 kD and 5 kD pegylated SEQ ID NO: 1 in aged osteopenic ovariectomized rats; details: for Serum Calcium: 24 hours after dosing
Description: A compound of the invention with SEQ ID NO: 1, wherein the mPEG to which it is conjugated is a 2 kD mPEG, is directly compared to a compound of the invention with SEQ ID NO: 1, wherein the mPEG to which it is conjugated is a 5 kD mPEG. Aged osteopenic ovariectomized rats are permitted to lose bone for one month before dosing (nmol/kg as in Table 5 and 6) every 6 days with vehicle alone, or the 2 kD pegylated SEQ ID NO: 1 compound or the 5 kD pegylated SEQ ID NO: 1 compound for 8 weeks.

[4] = 11 nmol/kg every 6 days for 8 weeks
[5] = 32 nmol/kg every 6 days for 8 weeks
[6] = 108 nmol/kg every 6 days for 8 weeks

SEQ ID NO: 1 with 5 kD mPEG (SVSEIQLMHNLGRHLASMERVEWLRKLLQDVHNF-NH2; not fully specified (residue 26))
Hypercalcemic Dose/BMD Dose [1]: >8.8
Hypercalcemic Dose/Femoral Neck Strength Dose ([2]; derived from Table 3): >9.7
Hypercalcemic Dose/Midshaft Strength Dose ([2]; derived from Table 3): >1.0
Hypercalcemic Dose/Vertebral BMC Dose ([2]; derived from Table 3): >3.34
Hypercalcemic Dose/Vertebral BMD Dose ([2]; derived from Table 3): >1.0
Hypercalcemic Dose/Vertebral Strength Dose ([2]; derived from Table 3): >1.0
Vertebral BMC Dose ([2]; dose at which Sham level of vertebral BMC is achieved): 32 nmol/kg
Vertebral BMD Dose ([2]; dose at which Sham level of vertebral BMD is achieved, s.c. every 6 or 7 days for two months): >108 nmol/kg
Fem Neck Strength Dose ([2]; dose at which femoral neck strength comparable to sham vehicle control and positive control is achieved): 11 nmol/kg
Midshaft Strength Dose ([2]; dose at which midshaft strength comparable to sham vehicle control and positive control is achieved): 108 nmol/kg
Vertebral Strength Dose ([2]; dose at which vertebral strength comparable to sham and positive control is achieved): 108 nmol/kg
Hypercalcemia Dose ([2]; sera 24 hours after administration, > means highest dose tested, not reached): >107 nmol/kg
Vertebral BMD [3, 4]: 567 mg/cc
Serum Calcium [3, 4]: 10.86 mg/dL
Vertebral BMD [3, 5]: 589 mg/cc
Serum Calcium [3, 5]: 10.79 mg/dL
Vertebral BMD [3, 6]: 612 mg/cc
Serum Calcium [3, 6]: 11.03 mg/dL
